Data on one protein can be found in publication PMC9378516 (Journal of molecular biology, 2022).

One may read the stoichiometry N as the number of molecules, sites or subunits per partner or assembly.

The data set deals with the molecule itself. As to the kind of experiment: AUC.

B1: TRF2 (hTERF2), full-length construct, residues 5-542 (natural protein, human, UniProt Q15554-3 5-542, looked up)
chain: AGTAGPASGPGVVRDPAASQPRKRPGREGGEGARRSDTMAGGGGSSDGSGRAAGRRASRSSGRARRGRHEPGLGGPAERGAGEARLEEAVNRWVLKFYFHEALRAFRGSRYGDFRQIRDIMQALLVRPLGKEHTVSRLLRVMQCLSRIEEGENLDCSFDMEAELTPLESAINVLEMIKTEFTLTEAVVESSRKLVKEAAVIICIKNKEFEKASKILKKHMSKDPTTQKLRNDLLNIIREKNLAHPVIQNFSYETFQQKMLRFLESHLDDAEPYLLTMAKKALKSESAASSTGKEDKQPAPGPVEKPPREPARQLRNPPTTIGMMTLKAAFKTLSGAQDSEAAFAKLDQKDLVLPTQALPASPALKNKRPRKDENESSAPADGEGGSELQPKNKRMTISRLVLEEDSQSTEPSAGLNSSQEAASAPPSKPTVLNQPLPGEKNPKVPKGKWNSSNGVEEKETWVEEDELFQVQAAPDEDSTTNITKKQKWTVEESEWVKAGVQKYGEGNWAAISKNYPFVNRTAVMIKDRWRTMKRLGMN
On to B1, for which the “stoichiometry N” value was determined as 2.
